Changes are numbered by the printed parent chain. Each block holds one binder with its values, some of them ahead of it.
How the values were obtained:
[1] = target: T1, His-tagged recombinant human CD163 (R&D Systems, No. 1607-CD-050) (human, UniProt Q86VB7 46-1050, limits assumed); experiment: ELISA, His-tagged recombinant human CD163 coated at 5 µg/mL
T1 construct: Bought protein; also called recombinant CD163 protein; huCD163; not shown: His tag
Description: (§1) CD163 variant antibody binding to His-tagged recombinant human CD163 (R&D Systems, No. 1607-CD-050) protein was determined using ELISA. Recombinant protein was diluted in PBS to 5 μg/mL and added to 384-well high-binding ELISA plates (Greiner Bio-One, No. 781061) at 25 μL per well and incubated at 4° C. overnight. The plates were washed three times with PBS, using a BioTek ELx405 Select microplate washer (wash program ELISA_384_PBS_3×_wash) and then blocked with 90 μL/well of blocking buffer (2% nonfat, dry milk/PBS+0.05% Tween 20) for 1 hour at RT.
(§2) After blocking, 25 μL per well of primary antibodies were added to the plates and incubated for 1 hour at RT. […] After primary antibody binding, plates were washed three times with PBS using the EL405× (wash program ELISA_384_PBS 3×_wash). The secondary antibody was a goat anti-human IgG F(ab′)₂ HRP (Jackson Immunoresearch, No. 109-035-097). Secondary antibody was diluted to 1:2500 in 2% nonfat, dry milk/PBS, and 25 μL per well was added to the wells and incubated at RT for 1 hour. The plates were washed four times with PBS, using the EL405× (wash program ELISA_384_PBS_4× wash). After removal of the final wash, 25 μL/well of neat I-Step™ Ultra TMB-ELISA Substrate Solution (ThermoFisher, No. 34028) was added and the plates were incubated for 10-15 minutes at RT protected from light. After development, the reaction was stopped by adding 25 μL per well of 0.3 M HCl and plates were read using a SpectraMax M5e instrument at 450 nm.

[2] = target: T1, His-tagged recombinant human CD163 (R&D …); experiment: ELISA, plate coated with His-tagged recombinant human CD163 at 5 µg/mL, detection with anti-human IgG F(ab')2-HRP, A450; log axis in nM
Description: as §1, §2

[3] = target: T2, Biotin-labeled human CD163 (human, UniProt Q86VB7 42-1050, limits assumed, biotin-labeled (sites not given)); experiment: BLI (Octet RED96), b-huCD163 on SA biosensor, one Ab concentration 50.0 nM
T2 construct: Biotinylated form of the human CD163 antigen, immobilised on SA biosensors for BLI; also called b-huCD163; Human CD163 Protein (biotinylated)
T2 sequence (Q86VB7 42-1050 limits assumed): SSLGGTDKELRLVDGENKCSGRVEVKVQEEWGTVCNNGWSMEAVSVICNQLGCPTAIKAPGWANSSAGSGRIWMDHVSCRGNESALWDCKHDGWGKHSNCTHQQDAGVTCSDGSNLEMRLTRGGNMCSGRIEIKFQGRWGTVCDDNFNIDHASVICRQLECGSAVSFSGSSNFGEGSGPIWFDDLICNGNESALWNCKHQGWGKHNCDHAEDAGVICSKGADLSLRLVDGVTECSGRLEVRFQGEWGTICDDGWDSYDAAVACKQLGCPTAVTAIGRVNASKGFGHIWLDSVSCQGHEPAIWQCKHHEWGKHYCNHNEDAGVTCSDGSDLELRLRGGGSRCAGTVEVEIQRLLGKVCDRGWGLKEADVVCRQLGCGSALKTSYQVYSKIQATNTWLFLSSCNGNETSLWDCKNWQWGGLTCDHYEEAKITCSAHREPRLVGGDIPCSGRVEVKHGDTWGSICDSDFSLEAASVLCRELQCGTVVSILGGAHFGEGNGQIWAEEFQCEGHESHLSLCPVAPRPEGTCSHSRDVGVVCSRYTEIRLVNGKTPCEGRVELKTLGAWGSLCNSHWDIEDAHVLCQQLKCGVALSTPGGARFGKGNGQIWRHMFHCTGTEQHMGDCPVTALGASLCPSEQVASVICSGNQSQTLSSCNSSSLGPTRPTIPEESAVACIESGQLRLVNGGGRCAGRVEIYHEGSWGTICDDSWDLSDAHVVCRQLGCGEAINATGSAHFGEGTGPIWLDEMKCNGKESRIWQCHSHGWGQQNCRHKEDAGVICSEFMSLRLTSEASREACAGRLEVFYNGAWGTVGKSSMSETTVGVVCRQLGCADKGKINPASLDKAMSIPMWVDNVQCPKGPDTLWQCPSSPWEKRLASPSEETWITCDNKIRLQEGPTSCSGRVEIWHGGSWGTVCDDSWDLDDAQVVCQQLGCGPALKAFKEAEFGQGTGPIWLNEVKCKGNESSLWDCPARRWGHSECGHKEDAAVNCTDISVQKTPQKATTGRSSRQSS

[4] = target: T1, His-tagged recombinant human CD163 (R&D …); experiment: ELISA, His-tagged recombinant human CD163 coated; ratio of EC50 against AB101
Description: as §1
as §2, with “After removal of the final wash, 25 μL/well of neat I-Step™ Ultra TMB-ELISA Substrate Solution (ThermoFisher, No. 34028) was added and the plates were incubated for 10-15 minutes at RT protected from light.” left out

[5] = target: T1, His-tagged recombinant human CD163 (R&D …); experiment: ratio of the KD values of Table 6 (AB101 parental Ab KD over clone 4 KD); the method is not shown in the excerpt
[6] = target: T2, Biotin-labeled human CD163; experiment: BLI (Octet RED96), b-huCD163 on SA biosensor, ratio of KD against AB101 parental Ab
[7] = target: T2, Biotin-labeled human CD163; experiment: BLI (Octet RED96), b-huCD163 on SA biosensor, Ab at 6.25/12.5/25/50 nM
Description: The SA sensors were placed in the PBS buffer for 15 minutes. Different solutions were added to a 96-well plate according to the following orders, with 200 μL per well.

[8] = target: T3, human CD163 expressed on cells (SU-DHL-1 lymphoma cells, M2c macrophages, monocytes and dendritic cells of … (human, UniProt Q86VB7 42-1114)); experiment: cell-based or functional assay
T3 sequence (Q86VB7 other isoform, or with tags, fused parts or gaps limits assumed): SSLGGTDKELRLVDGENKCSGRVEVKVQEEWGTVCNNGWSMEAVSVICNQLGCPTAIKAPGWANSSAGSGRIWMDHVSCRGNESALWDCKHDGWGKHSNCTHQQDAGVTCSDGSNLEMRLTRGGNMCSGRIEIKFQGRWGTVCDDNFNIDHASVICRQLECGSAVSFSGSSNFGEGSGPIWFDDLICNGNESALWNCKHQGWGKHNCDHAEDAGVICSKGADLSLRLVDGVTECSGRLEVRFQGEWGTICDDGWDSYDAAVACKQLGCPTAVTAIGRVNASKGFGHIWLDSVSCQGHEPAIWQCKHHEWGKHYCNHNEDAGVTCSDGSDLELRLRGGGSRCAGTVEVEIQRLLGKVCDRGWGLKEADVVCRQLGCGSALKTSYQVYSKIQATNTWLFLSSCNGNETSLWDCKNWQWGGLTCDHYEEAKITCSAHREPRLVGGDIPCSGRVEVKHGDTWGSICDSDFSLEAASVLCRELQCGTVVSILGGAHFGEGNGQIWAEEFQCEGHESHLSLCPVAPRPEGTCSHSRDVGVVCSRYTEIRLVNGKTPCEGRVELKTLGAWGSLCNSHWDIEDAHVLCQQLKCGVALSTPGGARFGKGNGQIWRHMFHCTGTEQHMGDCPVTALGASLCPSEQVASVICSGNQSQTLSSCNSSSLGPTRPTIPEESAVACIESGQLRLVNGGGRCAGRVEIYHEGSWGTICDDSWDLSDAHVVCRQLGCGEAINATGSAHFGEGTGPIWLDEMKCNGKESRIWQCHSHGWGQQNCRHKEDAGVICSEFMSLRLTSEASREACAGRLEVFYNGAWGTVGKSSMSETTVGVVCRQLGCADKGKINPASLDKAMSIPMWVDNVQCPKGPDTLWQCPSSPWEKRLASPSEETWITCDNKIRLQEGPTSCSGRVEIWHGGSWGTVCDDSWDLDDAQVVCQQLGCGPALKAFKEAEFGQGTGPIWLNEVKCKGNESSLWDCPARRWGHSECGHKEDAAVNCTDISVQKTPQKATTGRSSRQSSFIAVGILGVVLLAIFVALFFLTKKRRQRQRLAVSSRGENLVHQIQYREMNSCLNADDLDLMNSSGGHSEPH

[9] = target: T3, human CD163 expressed on cells …; experiment: cell-based or functional assay; remark: listed apart in the source
[10] = target: T3, human CD163 expressed on cells …; experiment: cell-based or functional assay; remark: listed apart in the source
[11] = target: T3, human CD163 expressed on cells …; experiment: flow cytometry on whole blood, intermediate monocytes, APC-labeled antibody
Description: (§3) Antibody binding to human immune cell lineage subsets was assessed by flow cytometry. Briefly, whole blood with heparin as an anticoagulant was obtained (Bloodworks Northwest). Fc-receptor blocking reagent was directly added to whole blood to a final concentration of 10% FBS, 0.5 mg/mL human IgG1 and 0.05% NaN₃ in a final sample volume of 400 μL. […] After 30 minutes, red blood cells (RBC) were lysed with RBC lysis buffer, followed by Zombie UV viability staining. Then, cells were washed with FACS buffer (PBS containing 1% FBS, 2 mM EDTA, and 0.05% NaN₃) and resuspended in FACS buffer containing 10% FBS and 10% FcX block. Then, the antibody phenotyping cocktail (Table 8a) was added and incubated at room temperature for 30 minutes in the dark. Cells were washed with FACS buffer and resuspended in FACS buffer data acquisition using a FACSymphony™ Cytometer (BD BioSciences). Analysis was performed using FlowJo software. Populations were identified according to gating parameters as described in Table 8b.

[12] = target: T3, human CD163 expressed on cells …; experiment: flow cytometry on whole blood, DCs, APC-labeled antibody
Description: as §3

[13] = target: T3, human CD163 expressed on cells …; experiment: flow cytometry on whole blood, classical monocytes, APC-labeled antibody
Description: as §3

[14] = target: T3, human CD163 expressed on cells …; experiment: flow cytometry on whole blood, nonclassical monocytes, APC-labeled antibody
Description: as §3

[15] = target: T3, human CD163 expressed on cells …; experiment: cell-based or functional assay; remark: listed apart in the source

T1 sequence (Q86VB7 46-1050 limits assumed): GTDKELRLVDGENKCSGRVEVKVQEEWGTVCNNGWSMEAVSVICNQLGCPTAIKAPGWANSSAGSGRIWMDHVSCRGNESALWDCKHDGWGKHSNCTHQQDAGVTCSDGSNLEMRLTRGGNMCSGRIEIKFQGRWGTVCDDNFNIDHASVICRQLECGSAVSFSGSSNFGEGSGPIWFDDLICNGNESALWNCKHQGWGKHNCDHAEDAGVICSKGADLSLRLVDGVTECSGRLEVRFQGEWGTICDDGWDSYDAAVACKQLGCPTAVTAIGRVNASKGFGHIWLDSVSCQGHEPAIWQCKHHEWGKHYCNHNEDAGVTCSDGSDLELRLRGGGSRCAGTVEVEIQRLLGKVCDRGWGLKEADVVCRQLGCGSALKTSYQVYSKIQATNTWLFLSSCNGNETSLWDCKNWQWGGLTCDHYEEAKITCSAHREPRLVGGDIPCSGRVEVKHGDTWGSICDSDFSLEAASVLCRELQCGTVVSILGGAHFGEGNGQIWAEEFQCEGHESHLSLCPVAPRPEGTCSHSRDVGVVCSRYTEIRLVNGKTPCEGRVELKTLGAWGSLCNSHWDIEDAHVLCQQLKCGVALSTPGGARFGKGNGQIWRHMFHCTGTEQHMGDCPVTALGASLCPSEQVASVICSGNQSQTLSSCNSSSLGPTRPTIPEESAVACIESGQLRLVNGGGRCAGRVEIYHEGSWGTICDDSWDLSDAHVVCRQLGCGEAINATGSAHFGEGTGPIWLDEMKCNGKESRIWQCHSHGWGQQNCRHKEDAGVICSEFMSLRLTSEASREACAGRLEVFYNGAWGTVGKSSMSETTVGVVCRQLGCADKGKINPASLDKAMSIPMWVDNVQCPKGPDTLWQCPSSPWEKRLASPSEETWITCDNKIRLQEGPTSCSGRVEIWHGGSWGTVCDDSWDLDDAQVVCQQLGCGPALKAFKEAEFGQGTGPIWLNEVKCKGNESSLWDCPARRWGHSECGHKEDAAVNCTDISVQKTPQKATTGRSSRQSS

B1: Variant 1 (V1) (antibody, V domains shown)
VH: EVQLVESGGGVVQPGRSLRLSCAASGFTFSSYDMHWVRQAPGKGLEWVAVISEDGSNKYNADSVKGRFTISRDNSKNTLYLQMNSLRAEDTAVYYCARENVRPYYDFWSGYSSEYYYYGLDVWGQGTTVTVS
VL: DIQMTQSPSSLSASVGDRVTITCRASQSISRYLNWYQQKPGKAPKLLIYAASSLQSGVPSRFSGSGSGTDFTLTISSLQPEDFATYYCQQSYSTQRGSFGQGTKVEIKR
notes: The printed VH ends in TVS, one S shorter than the other variants
EC50 [1]: 1.87 nM | EC50 (read off the curve) [2]: ~0.002 nM | Kd [3]: 1.25 nM | koff [3]: 0.00112 s⁻¹ | kon [3]: 895000 M⁻¹ s⁻¹ | fold stronger binding than AB101 parental antibody (EC50) [4]: 27 to 45 fold

B2: Variant 4 (V4) (antibody, V domains shown)
VH: EVQLVESGGGVVQPGRSLRLSCAASGFTFSSYVMHWVRQAPGKGLEWVAVISEDGSNKYNADSVKGRFTISRDNSKNTLYLQMNSLRAEDTAVYYCARENVRPYYDFWSGYSSEYYYYGLDVWGQGTTVTVSS
VL: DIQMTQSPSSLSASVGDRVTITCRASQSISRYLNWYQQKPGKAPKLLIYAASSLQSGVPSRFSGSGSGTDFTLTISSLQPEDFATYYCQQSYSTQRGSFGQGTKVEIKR
notes: also called clone 4
fold affinity enhancement compared to AB101 parental Ab [5]: ~3760 fold | EC50 [1]: 3.05 nM | Affinity enhancement compared to parental Ab [6]: 3760 fold | EC50 (read off the curve) [2]: ~0.003 nM | Kd [3]: 0.824 nM | koff [3]: 0.000874 s⁻¹ | kon [3]: 1.06e+06 M⁻¹ s⁻¹ | fold stronger binding than AB101 parental antibody (EC50) [4]: 27 to 45 fold | Kd [7]: 0.176 nM | koff [7]: 0.000393 s⁻¹ | kon [7]: 2.23e+06 M⁻¹ s⁻¹

B4: Variant 2 (V2) (antibody, V domains shown)
VH: B2 VH with Y32E, V33T, N60H, S112N, L120M
VL: DIQMTQSPSSLSASVGDRVTITCRASQSISRYLNWYQQKPGKAPKLLIYAASSLQNGVPSRFSGSGSGTDFTLTISSLQPEDFATYYCQQSYSTTRGSFGQGTKVEIKR
EC50 [1]: 2.23 nM | EC50 (read off the curve) [2]: ~0.002 nM | Kd [3]: 0.991 nM | koff [3]: 0.00087 s⁻¹ | kon [3]: 878000 M⁻¹ s⁻¹

The remaining lines, values ahead:

potency against AB101 in relieving M2c-mediated suppression of IFNγ release [8]: > 10 fold | potency against parental AB101 in relieving M2c-mediated suppression of CD8+ T cell proliferation [8]: ~40 fold | potency against parental AB101 in relieving M2c-mediated suppression of perforin secretion [8]: ~100 fold | EC50 of antibody-elicited IFNγ secretion (M2c/T cell blast coculture) [9]: 0.47 nM | EC50 of antibody-elicited T cell proliferation (M2c/CD8+ T cell coculture) [10]: 0.27 nM | EC50 [1]: 2.79 nM | fold increase of geometric MFI compared to AB101 [11]: 9.2 fold | fold increase of geometric MFI compared to AB101 [12]: 4.3 fold | EC50 (read off the curve) [2]: ~0.003 nM | fold increase of geometric MFI compared to AB101 [13]: 9.8 fold | Kd [3]: 0.937 nM | koff [3]: 0.000925 s⁻¹ | kon [3]: 987000 M⁻¹ s⁻¹ | fold increase of geometric MFI compared to AB101 [14]: 3 fold | EC50 of antibody-elicited perforin secretion (M2c/CD8+ T cell coculture) [15]: 0.33 nM
B3: Variant 3 (V3) (antibody, human IgG1, V domains shown)
VH: B2 VH with N60E, S109R, S112N
VL: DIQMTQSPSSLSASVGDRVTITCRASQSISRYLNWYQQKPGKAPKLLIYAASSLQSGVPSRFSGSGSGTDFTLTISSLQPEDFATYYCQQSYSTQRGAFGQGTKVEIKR

EC50 [1]: 2.68 nM | EC50 (read off the curve) [2]: ~0.003 nM | Kd [3]: 0.964 nM | koff [3]: 0.000887 s⁻¹ | kon [3]: 921000 M⁻¹ s⁻¹
B5: Variant 6 (V6) (antibody, V domains shown)
VH: B2 VH with Y32E, V33T
VL: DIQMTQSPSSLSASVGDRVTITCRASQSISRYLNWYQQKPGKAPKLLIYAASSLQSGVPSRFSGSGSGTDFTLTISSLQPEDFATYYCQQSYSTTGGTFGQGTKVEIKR

EC50 [1]: 2.83 nM | EC50 (read off the curve) [2]: ~0.003 nM | Kd [3]: 1.03 nM | koff [3]: 0.000978 s⁻¹ | kon [3]: 951000 M⁻¹ s⁻¹
B6: Variant 5 (V5) (antibody, V domains shown)
VH: B2 VH with V33D, S109R, S112N
VL: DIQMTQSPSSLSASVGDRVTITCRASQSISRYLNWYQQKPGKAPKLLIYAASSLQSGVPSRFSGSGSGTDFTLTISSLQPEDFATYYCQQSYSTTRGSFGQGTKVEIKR
